Measurements published in US20170232076A1.

Tests used:
[1] = molecular target: cation-independent mannose-6-phosphate receptor (CI-M6PR) on cells overexpressing CI-M6PR; experiment: cellular uptake assay on cells overexpressing CI-M6PR, intracellular Naglu activity read-out
Target sequence in this assay (P11717 41-2491): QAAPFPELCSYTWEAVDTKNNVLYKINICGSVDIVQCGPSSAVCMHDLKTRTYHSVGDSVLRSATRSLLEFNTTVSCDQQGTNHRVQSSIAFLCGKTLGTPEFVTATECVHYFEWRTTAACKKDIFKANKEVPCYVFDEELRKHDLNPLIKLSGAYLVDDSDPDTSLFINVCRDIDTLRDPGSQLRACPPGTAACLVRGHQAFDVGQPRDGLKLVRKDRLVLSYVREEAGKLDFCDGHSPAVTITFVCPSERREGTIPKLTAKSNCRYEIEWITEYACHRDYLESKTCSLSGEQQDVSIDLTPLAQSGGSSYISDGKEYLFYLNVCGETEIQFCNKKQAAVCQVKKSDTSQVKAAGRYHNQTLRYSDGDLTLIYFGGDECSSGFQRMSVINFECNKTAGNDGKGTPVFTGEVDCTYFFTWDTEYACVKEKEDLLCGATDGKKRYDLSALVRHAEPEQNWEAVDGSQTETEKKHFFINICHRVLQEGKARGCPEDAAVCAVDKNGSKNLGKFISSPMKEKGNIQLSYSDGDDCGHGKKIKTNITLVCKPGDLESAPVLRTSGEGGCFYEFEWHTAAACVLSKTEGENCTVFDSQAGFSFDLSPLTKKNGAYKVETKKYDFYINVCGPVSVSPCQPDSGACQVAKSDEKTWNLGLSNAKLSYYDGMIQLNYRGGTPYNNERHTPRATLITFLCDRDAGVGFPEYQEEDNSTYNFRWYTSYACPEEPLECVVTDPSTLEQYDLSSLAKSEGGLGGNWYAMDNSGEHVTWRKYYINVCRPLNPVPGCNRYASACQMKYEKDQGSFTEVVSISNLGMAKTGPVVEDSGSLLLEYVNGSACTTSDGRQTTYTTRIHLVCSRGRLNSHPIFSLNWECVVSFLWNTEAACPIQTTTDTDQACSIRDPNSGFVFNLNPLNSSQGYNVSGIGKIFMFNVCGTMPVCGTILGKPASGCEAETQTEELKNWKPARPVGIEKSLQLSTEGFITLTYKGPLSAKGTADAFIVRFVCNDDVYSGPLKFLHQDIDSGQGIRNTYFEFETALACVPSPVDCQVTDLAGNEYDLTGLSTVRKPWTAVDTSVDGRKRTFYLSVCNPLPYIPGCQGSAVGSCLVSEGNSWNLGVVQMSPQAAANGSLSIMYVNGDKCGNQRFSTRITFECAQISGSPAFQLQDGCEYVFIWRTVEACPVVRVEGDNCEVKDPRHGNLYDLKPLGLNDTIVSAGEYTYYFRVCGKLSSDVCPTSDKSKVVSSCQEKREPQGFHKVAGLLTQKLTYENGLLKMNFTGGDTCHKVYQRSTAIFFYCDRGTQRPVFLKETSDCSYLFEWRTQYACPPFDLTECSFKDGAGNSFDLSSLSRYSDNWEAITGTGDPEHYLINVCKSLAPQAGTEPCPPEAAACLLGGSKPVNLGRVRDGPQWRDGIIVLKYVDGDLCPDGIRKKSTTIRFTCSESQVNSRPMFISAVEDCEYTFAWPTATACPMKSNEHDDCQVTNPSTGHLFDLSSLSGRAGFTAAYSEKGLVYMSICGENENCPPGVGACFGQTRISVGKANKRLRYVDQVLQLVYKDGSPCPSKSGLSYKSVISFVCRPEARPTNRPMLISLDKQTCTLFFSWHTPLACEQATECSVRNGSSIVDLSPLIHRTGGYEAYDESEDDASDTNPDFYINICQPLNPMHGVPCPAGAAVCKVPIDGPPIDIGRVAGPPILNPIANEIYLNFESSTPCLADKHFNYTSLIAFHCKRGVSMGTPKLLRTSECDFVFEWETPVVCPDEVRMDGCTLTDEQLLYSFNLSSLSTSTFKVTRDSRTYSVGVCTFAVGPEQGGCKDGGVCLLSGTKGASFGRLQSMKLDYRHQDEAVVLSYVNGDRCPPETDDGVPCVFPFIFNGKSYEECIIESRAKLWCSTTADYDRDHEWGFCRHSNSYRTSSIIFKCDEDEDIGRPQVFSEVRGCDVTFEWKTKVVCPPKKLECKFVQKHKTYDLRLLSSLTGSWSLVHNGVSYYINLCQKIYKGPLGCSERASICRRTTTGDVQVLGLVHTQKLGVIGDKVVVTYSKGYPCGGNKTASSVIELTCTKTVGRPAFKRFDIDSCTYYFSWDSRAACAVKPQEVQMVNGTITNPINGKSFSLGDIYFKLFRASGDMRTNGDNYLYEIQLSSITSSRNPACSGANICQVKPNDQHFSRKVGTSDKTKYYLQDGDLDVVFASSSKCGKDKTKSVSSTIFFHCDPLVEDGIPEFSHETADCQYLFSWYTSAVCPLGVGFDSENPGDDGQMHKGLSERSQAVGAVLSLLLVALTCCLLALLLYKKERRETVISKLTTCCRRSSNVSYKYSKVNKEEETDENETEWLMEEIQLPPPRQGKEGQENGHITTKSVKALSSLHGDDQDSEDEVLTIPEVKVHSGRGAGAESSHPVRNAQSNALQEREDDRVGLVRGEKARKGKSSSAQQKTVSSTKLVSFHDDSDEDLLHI

[2] = molecular target: cation-independent mannose-6-phosphate receptor (CI-M6PR) on cells overexpressing CI-M6PR; experiment: cellular uptake assay on cells overexpressing CI-M6PR, intracellular I2S enzyme activity read-out

Naglu-LIF fusion protein (produced in HT-1080 cells) (enzyme)
Kd [1]: 178 nM

Naglu-LIF fusion protein produced in HT-1080 cells overexpressing GNPT (enzyme)
Kd [1]: 15 nM

recombinant iduronate 2-sulfatase (I2S) produced in HT-1080 cells co-overexpressing GNPT (from UniProt P22304 26-550) (enzyme)
Kd [2]: 1.65 nM

recombinant iduronate 2-sulfatase (I2S) produced in HT-1080 cells overexpressing I2S alone (from UniProt P22304 26-550) (enzyme)
Kd [2]: 27.9 nM
